Assay results taken from PMC7904728, “ITSN1 regulates SAM68 solubility through SH3 domain interactions with SAM68 proline-rich motifs”.

Molecular target: ITSN1 SH3D-His (UniProt Q15811-2 1063-1150)
Assay: NMR; 300 uM SH3D, 1:1.2 molar ratio; shift perturbations in eight residues; EMSA: 20 mM Tris-HCl pH 7.4, 50 mM KCl, 1 mM Mg, room temperature, 5 min, 0.7% agarose 0.5x TBE; NMR: 298 K, protein dialyzed in 12 mM potassium
Settings: protein: recombinant; tags: His (pET22b); single strand

Chain of ITSN1 SH3D-His (Q15811 1063-1150): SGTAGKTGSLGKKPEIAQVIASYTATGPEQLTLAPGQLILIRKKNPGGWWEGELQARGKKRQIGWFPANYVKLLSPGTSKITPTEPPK

Binder | binding result
CACACACACACA (ssDNA) [CA6] | binds
TTTTTTTTTTTT (ssDNA) [T12] | binds
